These are literature values, as cited in article PMC3505014.

Series [1] addresses Cbln1 (UniProt P23435). Nature of the series: surface plasmon resonance. A general note: In SPR one partner is held on a chip, and binding of the other changes the refractive index at the surface.
The target in series [2] is NRXN1β ECD (UniProt P58400). Put plainly: surface plasmon resonance.
UniProt P58400, sequence (P58400 51-396): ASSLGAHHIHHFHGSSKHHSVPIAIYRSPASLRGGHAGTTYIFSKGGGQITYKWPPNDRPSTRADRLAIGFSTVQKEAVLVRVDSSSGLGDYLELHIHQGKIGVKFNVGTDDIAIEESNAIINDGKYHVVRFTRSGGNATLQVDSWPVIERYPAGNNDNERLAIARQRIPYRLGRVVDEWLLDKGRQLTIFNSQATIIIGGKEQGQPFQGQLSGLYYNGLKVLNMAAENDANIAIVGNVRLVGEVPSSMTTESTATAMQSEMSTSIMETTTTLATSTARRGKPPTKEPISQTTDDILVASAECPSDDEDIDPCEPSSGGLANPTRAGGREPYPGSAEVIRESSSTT

By Kd is commonly meant the concentration at which binding is half-saturated. With GluRδ2 (from UniProt O43424), the Kd in series [1] was 16.5 nM.

Turning to Cbln1 (from UniProt P23435), in series [2], the Kd was 0.17 nM.
